Measured values: article PMC7054364

Target: FITC-labelled type I collagen (UniProt P02453)
Sequence of UniProt P02453 (P02453 23-1217, chain 1 of 2): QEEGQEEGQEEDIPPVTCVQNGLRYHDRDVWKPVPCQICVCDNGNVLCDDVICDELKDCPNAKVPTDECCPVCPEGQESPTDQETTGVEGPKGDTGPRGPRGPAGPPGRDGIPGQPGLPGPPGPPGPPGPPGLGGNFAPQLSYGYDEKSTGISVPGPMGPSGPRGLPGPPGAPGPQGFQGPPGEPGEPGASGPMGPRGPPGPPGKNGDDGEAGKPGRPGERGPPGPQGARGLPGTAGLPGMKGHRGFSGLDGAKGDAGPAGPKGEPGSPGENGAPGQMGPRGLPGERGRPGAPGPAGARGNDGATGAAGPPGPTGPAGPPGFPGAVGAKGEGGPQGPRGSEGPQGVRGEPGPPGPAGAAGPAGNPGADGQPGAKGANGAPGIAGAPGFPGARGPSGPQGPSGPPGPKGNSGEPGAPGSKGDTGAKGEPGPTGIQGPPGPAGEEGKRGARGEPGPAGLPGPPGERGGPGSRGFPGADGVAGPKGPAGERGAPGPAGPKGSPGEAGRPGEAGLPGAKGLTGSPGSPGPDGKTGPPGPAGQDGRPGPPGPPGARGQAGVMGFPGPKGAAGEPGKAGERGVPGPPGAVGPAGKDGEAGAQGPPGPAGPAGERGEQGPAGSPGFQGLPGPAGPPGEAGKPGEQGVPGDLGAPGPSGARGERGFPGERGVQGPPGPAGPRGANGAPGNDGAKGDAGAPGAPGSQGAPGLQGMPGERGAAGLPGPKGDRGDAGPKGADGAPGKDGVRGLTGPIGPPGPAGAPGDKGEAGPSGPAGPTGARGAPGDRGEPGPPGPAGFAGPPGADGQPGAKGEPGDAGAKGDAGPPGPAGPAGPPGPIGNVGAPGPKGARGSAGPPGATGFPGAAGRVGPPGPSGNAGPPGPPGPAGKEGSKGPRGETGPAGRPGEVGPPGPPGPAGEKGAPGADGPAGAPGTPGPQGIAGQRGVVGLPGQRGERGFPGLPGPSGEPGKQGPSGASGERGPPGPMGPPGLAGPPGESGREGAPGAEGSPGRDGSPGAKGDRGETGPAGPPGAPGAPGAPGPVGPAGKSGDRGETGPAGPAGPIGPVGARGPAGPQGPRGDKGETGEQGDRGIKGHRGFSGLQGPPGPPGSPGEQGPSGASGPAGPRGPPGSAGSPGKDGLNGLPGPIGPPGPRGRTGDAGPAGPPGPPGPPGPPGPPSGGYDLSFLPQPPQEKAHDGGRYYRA
Sequence of UniProt P02453 (P02465 80-1117, chain 2 of 2, further chain): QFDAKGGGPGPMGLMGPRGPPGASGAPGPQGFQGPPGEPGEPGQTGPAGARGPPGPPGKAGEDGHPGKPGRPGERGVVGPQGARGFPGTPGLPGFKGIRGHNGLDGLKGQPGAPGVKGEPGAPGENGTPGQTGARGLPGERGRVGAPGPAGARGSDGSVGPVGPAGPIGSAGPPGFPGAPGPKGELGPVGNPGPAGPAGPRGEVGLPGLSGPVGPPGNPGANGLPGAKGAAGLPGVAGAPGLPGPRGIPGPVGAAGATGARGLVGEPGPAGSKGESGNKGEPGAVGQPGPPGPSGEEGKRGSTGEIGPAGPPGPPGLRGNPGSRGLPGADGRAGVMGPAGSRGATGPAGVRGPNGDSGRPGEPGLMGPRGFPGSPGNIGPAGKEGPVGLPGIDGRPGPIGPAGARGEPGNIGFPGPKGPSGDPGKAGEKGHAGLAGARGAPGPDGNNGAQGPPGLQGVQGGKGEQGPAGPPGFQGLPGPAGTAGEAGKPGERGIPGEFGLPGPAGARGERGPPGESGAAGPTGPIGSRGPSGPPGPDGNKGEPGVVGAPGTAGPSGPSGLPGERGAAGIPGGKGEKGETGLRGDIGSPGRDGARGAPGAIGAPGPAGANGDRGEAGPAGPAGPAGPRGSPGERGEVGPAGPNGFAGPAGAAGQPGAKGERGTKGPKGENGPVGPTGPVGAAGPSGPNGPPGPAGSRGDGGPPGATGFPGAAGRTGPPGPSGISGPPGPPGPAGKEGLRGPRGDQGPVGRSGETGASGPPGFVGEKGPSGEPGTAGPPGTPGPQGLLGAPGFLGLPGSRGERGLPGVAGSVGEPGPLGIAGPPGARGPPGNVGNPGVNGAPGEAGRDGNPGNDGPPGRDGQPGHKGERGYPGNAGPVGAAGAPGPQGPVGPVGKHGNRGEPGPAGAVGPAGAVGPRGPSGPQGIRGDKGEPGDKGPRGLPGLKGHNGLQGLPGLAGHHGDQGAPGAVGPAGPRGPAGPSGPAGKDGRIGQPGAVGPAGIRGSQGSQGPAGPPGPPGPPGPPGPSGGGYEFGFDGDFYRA

Q: How did the Km of hydrolysis of FITC-labelled type I collagen (Lineweaver-Burk plot; 50 mM Tris-HCl, 0.2 M NaCl, 5 mM CaCl2, pH 7.5, 30 °C) turn out when “purified collagenase product from C. histolyticum” was run?
A: 0.00189 mM

Q: With “recombinant 62-kDa collagenase from Grimontia hollisae (enzyme)” as the substance, how does the Km of hydrolysis of FITC-labelled type I collagen (Lineweaver-Burk plot; 50 mM Tris-HCl, 0.2 M NaCl, 5 mM CaCl2, pH 7.5, 30 °C) read?
A: 0.00109 mM
